B1: anti-FOLR1/CD3 Bi-Fc (bispecific antibody)
chain 1: not shown
chain 2: HMSSVSAQAAAEPKSSDKTHTCPPCPAPEAAGGPSVFLFPPKPKDTLMISRTPEVTCVVVDVSHEDPEVKFNWYVDGVEVHNAKTKPREEQYNSTYRVVSVLTVLHQDWLNGKEYKCKVSNKALPAPIEKTISKAKGQPREPQVYTLPPSREEMTKNQVSLTCLVKGFYPSDIAVEWESNGQPENNYDTTPPVLDSDGSFFLYSDLTVDKSRWQQGNVFSCSVMHEALHNHYTQKSLSLSPGK
B2: anti-HER2/CD3 Bi-Fc (bispecific antibody)
chain 1: not shown
chain 2: B1 chain 2

Columns and labels:
Assay in all cases: cell-based or functional assay
[1] = molecular target: T1, FOLR1 (human, UniProt P15328 25-234)
T1 sequence (P15328 25-234): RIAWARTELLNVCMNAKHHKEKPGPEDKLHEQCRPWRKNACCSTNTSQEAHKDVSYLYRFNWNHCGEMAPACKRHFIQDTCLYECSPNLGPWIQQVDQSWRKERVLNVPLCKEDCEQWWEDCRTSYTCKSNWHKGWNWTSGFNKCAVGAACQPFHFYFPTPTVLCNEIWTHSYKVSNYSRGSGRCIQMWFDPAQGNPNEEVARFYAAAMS

[2] = molecular target: T1, FOLR1; remark: listed apart in the source
[3] = molecular target: T2, HER2 (human, UniProt P04626 23-1255)
[4] = molecular target: T2, HER2; remark: listed apart in the source

Binder	EC50 (pM) for eliciting IFN-γ secretion by T cells, T47D cells [1] [pM]	EC50 (pM) for eliciting IL-2 secretion by T cells, T47D cells [1] [pM]	EC50 (pM) for eliciting IL-10 secretion by T cells, T47D cells [1] [pM]	EC50 (pM) for eliciting IL-13 secretion by T cells, T47D cells [1] [pM]	EC50 (pM) for eliciting TNF-α secretion by T cells, T47D cells [1] [pM]	EC50 (pM), T cell-dependent cell cytolysis (TDCC), Cal-51 cells [2] [pM]	EC50 (pM), T cell-dependent cell cytolysis (TDCC), T47D cells [2] [pM]	EC50 (pM), T cell-dependent cell cytolysis (TDCC), JIMT-1 cells [3] [pM]	EC50 (pM), T cell-dependent cell cytolysis (TDCC), T47D cells [3] [pM]	EC50 (pM) for eliciting IFN-γ secretion by T cells, JIMT-1 cells [4] [pM]	EC50 (pM) for eliciting IL-2 secretion by T cells, JIMT-1 cells [4] [pM]	EC50 (pM) for eliciting IL-10 secretion by T cells, JIMT-1 cells [4] [pM]	EC50 (pM) for eliciting IL-13 secretion by T cells, JIMT-1 cells [4] [pM]	EC50 (pM) for eliciting TNF-α secretion by T cells, JIMT-1 cells [4] [pM]
B1	48.6	67.3	110	127	41.2	1.27	1.35							
B2								11.5	1.03	32.9	22.3	9.6	16.4	19.5
